{
  "source": "patent US20230055566A1",
  "molecular_target": "human FGFR2b (beta)-Fc (human) (UniProt P21802)",
  "experiment": "SPR (Biacore), hFGFR2b-Fc immobilized on CM5 chip, antibody injected at 0-200 nM",
  "data": [
    {"substance": "FPA144 (antibody)", "values": [
      {"measurement": "Kd", "value": 0.75, "unit": "nM"},
      {"measurement": "koff", "value": "7.77e-05", "unit": "s⁻¹"},
      {"measurement": "kon", "value": 104000, "unit": "M⁻¹ s⁻¹"}
    ]}
  ]
}
